For this data set, the system named is MS2 coat protein. Kind of data set: apparent KD of MS2 coat protein; designed switch direction (-1 OFF switch, 1 ON switch): -1; higher = weaker reporter binding. The essentials: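 Designed RNA switches with common flanks were transcribed on Illumina chips by stalled E. coli RNA polymerase and titrated with SNAP-549-labelled MS2 coat protein, from 0.7 or 1.5 nM doubling to 3 µM, in Tris-HCl pH 7.5 buffer with KCl, MgCl2, BSA, DTT, tRNA and Tween-20. Steps lasted 0.8–1.5 h (lowest) to 10–20 min (highest). Titrations ran without input, with 200 uM small-molecule ligand, or with an oligonucleotide input. Normalised cluster fluorescence was curve-fitted, and apparent KD is the per-design median over clusters.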

The mark [1] stands for this setting: Eterna round: R95, input ligand: FMN 200 uM.
Setting [2] is: Eterna round: R95, input ligand: microRNA oligo, concentration not stated.
[3] abbreviates: Eterna round: R95, input ligand: none.
[4] abbreviates: input ligand: microRNA oligo, concentration not stated.

“UGCCUACGUGUGAGGAUAUCAAGGUUUCCACACUAUGAGAAGGUACAUGAGGAUCACCCAUGUUUAGAUGAGCC [Eternabot (L2) Solution 43] (Eterna round: R97, puzzle: Brourd's mod of Exclusion 4)”: the “apparent KD of MS2 coat protein” value (input ligand: FMN 200 uM) worked out at 74.2 nM and the “apparent KD of MS2 coat protein” value (input ligand: none) turned out to be 74.6 nM.
For “UGCGAGUAAGGAUAUUCGCGACCGCCCACAAAGGCGGUCGAGAAGAAGGUACUUGAGGAUCACCCAAGUCCUAA [Anremaqu] (Eterna round: R97, puzzle: Exclusion 4)” the same measures were 98.2 nM and 22 nM.
For “UGCGUUUGAGGAUAUACGUAGAAAUAGAUUCAUGUAAAACUACAUGAGGAUCACCCAUGUAGAAGGCAAGCGCU [Mat - Exclusion 2 - JL Mod - D39] (Eterna round: R97, puzzle: Exclusion 2)”, in that order: 239 nM and 26.4 nM.
Turning to “UGCUGACGAGGAUAUACAUGAGGAUCACCCAUGUUGGUCAAGCGACGAUAGUCGCAAUGUAGAAGGCGUCAGCA [E3/8-A2] (Eterna round: R97, puzzle: Exclusion 3)”, the “apparent KD of MS2 coat protein” value stood at 239 nM (input ligand: FMN 200 uM) and 405 nM (input ligand: none).
As to “UGGUAACAUGAGGAUCACCCAUGUCAGGAUAUCAGUAAGAAUAGAUUAGAUUAGAAGAUGAGAAGGGACUAUAU [Excluse me! 5 - Jieux - Exclusion 1] (puzzle: Exclusion 1)”, the “apparent KD of MS2 coat protein” value turned out to be 27.6 nM under setting [1], 32 nM under setting [2] and 36.7 nM under setting [3].
“UGGUCACAUGAGGAUCACCCAUGUCAGGAUAUCUACAUUGAAGCCUCGGCUUCAAUGUAGAGAAGGGACAUAAU [E1/6-B2] (Eterna round: R97, puzzle: Exclusion 1)”: the “apparent KD of MS2 coat protein” value reads like this: (input ligand: FMN 200 uM) 121 nM; (input ligand: none) 265 nM.
For “UGGUCACAUGAGGAUCACCCAUGUCAGGAUAUCUACAUUGAAGCUGCGGCUUCAAUGUAGAGAAGGGACAUAAU [E1/7-B3] (Eterna round: R97, puzzle: Exclusion 1)”, in that order: 314 nM and 272 nM.
For the sequence “UGGUCACAUGAGGAUCACCCAUGUCAGGAUAUCUACAUUGAAGCUUCGGCUUCAAUGUAGAGAAGGGAUAUAAU [E1/9-B1] (Eterna round: R97, puzzle: Exclusion 1)”, the “apparent KD of MS2 coat protein” value (input ligand: FMN 200 uM) worked out at 167 nM and the “apparent KD of MS2 coat protein” value (input ligand: none) was 71.4 nM.
“UGUAACCGAGGAUAUACAUGAGGAUCACCCAUGUAAUGUAGUAUAGUGUAUGUAAGAUGUAGAAGGUGGGAUGU (Eterna round: R97, puzzle: Exclusion 3)”: the “apparent KD of MS2 coat protein” value runs as follows: (input ligand: FMN 200 uM) 40.2 nM; (input ligand: none) 45.7 nM.
For “UGUAACCUGGUAAGGAUAUAGUUGCAAGGAGUCAACUAGAAGGUACAUGAGGAUCACCCAUGUCUACGGAUAUC [Eternabot (L2) Solution 91] (Eterna round: R97, puzzle: Brourd's mod of Exclusion 4)”, in that order: 20.6 nM and 17.3 nM.
For “UGUACGAUGCGUGCUGACAUGCGUCGUGCAGCAGGUGAUACAUGAGGAUCACCCAUGUCCUCAUUUGCUCGUCAUGU [Mat - Sensor v3 - Turn-off var 2 - D25] (puzzle: Sensor v3, turn-off variant 2)”, the “apparent KD of MS2 coat protein” value was 73.4 nM under setting [1], 384 nM under setting [2] and 91.3 nM under setting [3].
For the sequence “UGUACGAUGCGUGCUGACAUGCGUCGUGCAGCAGGUGAUACAUGAGGAUCACCCAUGUCCUCAUUUGCUCGUCUAGU [Mat - Sensor v3 - Turn-off var 2 - D24] (puzzle: Sensor v3, turn-off variant 2)”, the “apparent KD of MS2 coat protein” value is, setting by setting: under setting [1], 72.5 nM; under setting [2], 467 nM; under setting [3], 78.4 nM.
For “UGUACGAUGCGUGCUGACAUGCGUCGUGCAGCAGGUGAUACAUGAGGAUCACCCAUGUCCUCAUUUGCUCGUCUUGU [SL-sv3-2.11 JL mod] (puzzle: Sensor v3, turn-off variant 2)”, in that order: 82.5 nM, 267 nM and 85.6 nM.
Regarding “UGUACGAUGCGUGCUGACAUGCGUCGUGCAGCAGGUGGAACAUGAGGAUCACCCAUGUCCUCAUUUGCUCGUCUUGU [SL-sv3-2.10 JL mod] (puzzle: Sensor v3, turn-off variant 2)”, the “apparent KD of MS2 coat protein” value by setting is: under setting [1], 54.7 nM; under setting [2], 140 nM; under setting [3], 52.3 nM.
For “UGUACUAACACGAGAGUGUUAGUACUAUAAGCUUGUGUUACAUGAGGAUCACCCAUGUCCUCAUAAGCUCGUCUUGA [Mat - Sensor v3 - Turn-off var 2 - D94] (puzzle: Sensor v3, turn-off variant 2)”, in that order: 40.4 nM, 285 nM and 34 nM.
For “UGUACUAUGCGUGCUGACAUGCGUAGUGCAGCAGGUGUUACAUGAGGAUCACCCAUGUCCUCAUUUGCUCGUCUUAU [SL-sv3-2.07 JL mod] (puzzle: Sensor v3, turn-off variant 2)” the same measures were 189 nM, 200 nM and 215 nM.
“UGUAGAGUGGUAGGAUAUCCGUCUGUUUCAGUCGGAGAAGGGCCACAGUCACUGGGUCCUAAUAUCAUGGAGACCUGAUCUACU [pwkr exNG1 F6.14] (Eterna round: R96, puzzle: Exclusion NG 1)”: the “apparent KD of MS2 coat protein” value reads like this: (input ligand: FMN 200 uM) 599 nM; under setting [4], 288 nM; (input ligand: none) 383 nM.
For “UGUAGUUCAGGAUAUGAUGUUUAAUACAUGAGGAUCACCCAUGUAGAUCCUGAAUUUACAUCAGAAGGGAAUAUUU [JL-ex5-4.57 Brourd mod] (Eterna round: R97, puzzle: Exclusion 5)”, the “apparent KD of MS2 coat protein” value (input ligand: FMN 200 uM) came out at 17.3 nM and the “apparent KD of MS2 coat protein” value (input ligand: none) was 14.9 nM.
Regarding “UGUAUACAUGAGGAUCACCCAUGUAAGGAUAUACAUCAGAUCGACACCGGACUGGCCCGUAGAAGGUGCGUGGA [Eternabot (L2) Solution 67] (Eterna round: R97, puzzle: Exclusion 1)”, the “apparent KD of MS2 coat protein” value is, setting by setting: (input ligand: FMN 200 uM) 24.9 nM; (input ligand: none) 24 nM.
Take “UGUAUCCGAGGAUAUCGCUUGAGGGACAUGAGGAUCACCCAUGUGAAGAAAAGCGUCCCGCGAGAAGGCGGACCCA [EX5 B.24] (Eterna round: R97, puzzle: Exclusion 5)”: the “apparent KD of MS2 coat protein” value is 189 nM (input ligand: FMN 200 uM) and 66.4 nM (input ligand: none).
Regarding “UGUCAGUCAGGAUAUGCAUACGUAGACAUGAGGAUCACCCAUGUGACGUGGGCCUGGUGUGUAGAAGGGACGAACA [EX5 #80] (Eterna round: R97, puzzle: Exclusion 5)”, the “apparent KD of MS2 coat protein” value is, setting by setting: (input ligand: FMN 200 uM) 48.5 nM; (input ligand: none) 19.5 nM.
Take “UGUGCAACAGGAUAUAUGUGGCGUCCGUGAGGACGAAGGUUACAUGAGGAUCACCCAUGUAGAAGGGUUGUACU [Mat - Exclusion 2 - JL Mod - D24] (Eterna round: R97, puzzle: Exclusion 2)”: the “apparent KD of MS2 coat protein” value (input ligand: FMN 200 uM) was 218 nM and the “apparent KD of MS2 coat protein” value (input ligand: none) came to 68.5 nM.
Consider “UGUGCGUAUGUGAGGAUAUGCUGGUCCUUGGAUCGGCAGAAGGCACAUGAGGAUCACCCAUGUGGUGUCGUACA [salish99_Bmod_ex4_086] (puzzle: Brourd's mod of Exclusion 4)”, for which, under setting [2], the “apparent KD of MS2 coat protein” value is 204 nM.
The same measure, in the same setting: for “UGUGCGUAUGUGAGGAUAUGCUGGUCCUUGGAUCGGCAGAAGGCACAUGAGGAUCACCCAUGUGGUGUCGUUCU [salish99_Bmod_ex4_096] (puzzle: Brourd's mod of Exclusion 4)” the value was 188 nM.
Take “UGUGCGUCAGGAUAUUCUAUUUAUUACAUGAGGAUCACCCAUGUGAAUGUACAAGGGUGUGAAGAAGGGACUUGUG [LRO-Excl5-03-mod A17d by Omei] (Eterna round: R97, puzzle: Exclusion 5)”: the “apparent KD of MS2 coat protein” value by setting is: (input ligand: FMN 200 uM) 808 nM; (input ligand: none) 1090 nM.
For “UGUGUGAGACAGGAUAUGCCAGAUAUAUUACUGGUAGAAGGGUCUACAUGAGGAUCACCCAUGUGGCCGGCCGG [Ex6 #85] (Eterna round: R97, puzzle: Exclusion 6)”, in that order: 65.3 nM and 28.5 nM.
For “UGUGUGUGACAGGAUAUGCAGGUAAUGAGACGGGUAGAAGGGUCUACAUGAGGAUCACCCAUGUGGCCGGUUGG [Ex6 #62] (Eterna round: R97, puzzle: Exclusion 6)” the same measures were 17.7 nM and 16.4 nM.
For the sequence “UGUUGGCGAGGAUAUACAUGAGGAUCACCCAUGUGAGAGAAAAAAGUGAGGAAGAAAAGUAGAAGGCGCUGACG [salish99_ex3_r3_043] (puzzle: Exclusion 3)”, the “apparent KD of MS2 coat protein” value reads like this: under setting [1], 209 nM; under setting [2], 40 nM; under setting [3], 45.4 nM.
Take “UGUUGUCGCGCAGGAUAUGAGGAUCACCCAUGUAGAGGAUAUGAAAAGAAGGCUCUGAGGAUUACCCAGAAGGGCGGGACAACU [pwkr exNG2 2xF5 2xFMN.25] (Eterna round: R96, puzzle: Exclusion NG 2)”: the “apparent KD of MS2 coat protein” value is, setting by setting: (input ligand: FMN 200 uM) 800 nM; under setting [4], 270 nM; (input ligand: none) 400 nM.
Take “UGUUGUCGCGCAGGAUAUGGCCAACAGGCCCUAGGAUAUCCGAAAGGAGAAGGAGCGCCAACAGGCGAGAAGGGCGGGACAACU [pwkr exNG2 2xF7 2xFMN.16] (Eterna round: R96, puzzle: Exclusion NG 2)”: the “apparent KD of MS2 coat protein” value (input ligand: FMN 200 uM) came to 19.5 nM, the “apparent KD of MS2 coat protein” value under setting [4] was 4.03 nM and the “apparent KD of MS2 coat protein” value (input ligand: none) was 29.7 nM.
